Assay results as given in US20260167699A1 (Chugai, published 2026).
One block for each binder: values may come before it.

Molecular target: T1, FcγRIIIa (human, UniProt P08637 17-208)
T1 construct: extracellular domain; also called 3a; FcγRIIIa extracellular domain
Test: SPR (Biacore);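 further: antibody variants captured on an SPR sensor chip, with FcγRIIIa passed over as analyte in HBS-EP+ buffer at 25 °C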

T1 sequence (P08637 other isoform, or with tags, fused parts or gaps): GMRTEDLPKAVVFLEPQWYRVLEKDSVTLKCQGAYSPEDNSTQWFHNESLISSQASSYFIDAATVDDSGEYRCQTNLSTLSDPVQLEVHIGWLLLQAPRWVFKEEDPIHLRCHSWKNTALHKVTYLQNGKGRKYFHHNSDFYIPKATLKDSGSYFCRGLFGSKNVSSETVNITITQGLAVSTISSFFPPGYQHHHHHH

- He/Con 3a: 113 % of GpH7-A5/GpH7-B3/GpL16-k0
B2: GpH7-A5/GpH7-B3 variant S324_02A/GpL16-k0 (antibody, human IgG1, kappa)
heavy 1: not shown
heavy 2: not shown
light: DIVMTQSPLSLPVTPGEPASISCQASESLVHSNRNTYLHWYLQKPGQSPQLLIYKVSNRFSGVPDRFSGSGSGTDFTLKISRVEAEDVGVYYCSQNTHVPPTFGQGTKVEIERTVAAPSVFIFPPSDEQLKSGTASVVCLLNNFYPREAKVQWKVDNALQSGNSQESVTEQDSKDSTYSLSSTLTLSKADYEKHKVYACEVTHQGLSSPVTKSFNRGEC
notes: copies: 1 + 1 + 2

- He/Con 3a: 149 % of GpH7-A5/GpH7-B3/GpL16-k0
B3: GpH7-A5/GpH7-B3 variant S267_02A/GpL16-k0 (antibody, human IgG1, kappa)
heavy 1: not shown
heavy 2: not shown
light: B2 light
notes: copies: 1 + 1 + 2

- He/Con 3a: 53.8 % of GpH7-A5/GpH7-B3/GpL16-k0
B5: GpH7-A5/GpH7-B3 variant S239_19Q/GpL16-k0 (antibody, human IgG1, kappa)
heavy 1: not shown
heavy 2: not shown
light: B2 light
notes: copies: 1 + 1 + 2

- He/Con 3a: 69.2 % of GpH7-A5/GpH7-B3/GpL16-k0
B6: GpH7-A5/GpH7-B3 variant S298_08L/GpL16-k0 (antibody, human IgG1, kappa)
heavy 1: not shown
heavy 2: not shown
light: B2 light
notes: copies: 1 + 1 + 2

- He/Con 3a: 71.9 % of GpH7-A5/GpH7-B3/GpL16-k0
B9: GpH7-A5/GpH7-B3 variant S298_16H/GpL16-k0 (antibody, human IgG1, kappa)
heavy 1: not shown
heavy 2: not shown
light: B2 light
notes: copies: 1 + 1 + 2

- He/Con 3a: 80.6 % of GpH7-A5/GpH7-B3/GpL16-k0
B11: GpH7-A5/GpH7-B3 variant S298_15Y/GpL16-k0 (antibody, human IgG1, kappa)
heavy 1: not shown
heavy 2: not shown
light: B2 light
notes: copies: 1 + 1 + 2

- He/Con 3a: 72.3 % of GpH7-A5/GpH7-B3/GpL16-k0
B12: GpH7-A5/GpH7-B3 variant S324_05P/GpL16-k0 (antibody, human IgG1, kappa)
heavy 1: not shown
heavy 2: not shown
light: B2 light
notes: copies: 1 + 1 + 2

- He/Con 3a: 101 % of GpH7-A5/GpH7-B3/GpL16-k0
B13: GpH7-A5/GpH7-B3 variant S324_03V/GpL16-k0 (antibody, human IgG1, kappa)
heavy 1: not shown
heavy 2: not shown
light: B2 light
notes: copies: 1 + 1 + 2

- He/Con 3a: 156 % of GpH7-A5/GpH7-B3/GpL16-k0
B15: GpH7-A5/GpH7-B3 variant S239_09D/GpL16-k0 (antibody, human IgG1, kappa)
heavy 1: not shown
heavy 2: not shown
light: B2 light
notes: copies: 1 + 1 + 2

- He/Con 3a: 50 % of GpH7-A5/GpH7-B3/GpL16-k0
B19: GpH7-A5/GpH7-B3 variant S298_11K/GpL16-k0 (antibody, human IgG1, kappa)
heavy 1: not shown
heavy 2: not shown
light: B2 light
notes: copies: 1 + 1 + 2

- He/Con 3a: 106 % of GpH7-A5/GpH7-B3/GpL16-k0
B22: GpH7-A5/GpH7-B3 variant S298_14T/GpL16-k0 (antibody, human IgG1, kappa)
heavy 1: not shown
heavy 2: not shown
light: B2 light
notes: copies: 1 + 1 + 2

- He/Con 3a: 87.2 % of GpH7-A5/GpH7-B3/GpL16-k0
B23: GpH7-A5/GpH7-B3 variant S298_06M/GpL16-k0 (antibody, human IgG1, kappa)
heavy 1: not shown
heavy 2: not shown
light: B2 light
notes: copies: 1 + 1 + 2

- He/Con 3a: 62.7 % of GpH7-A5/GpH7-B3/GpL16-k0
B24: GpH7-A5/GpH7-B3 variant S298_09D/GpL16-k0 (antibody, human IgG1, kappa)
heavy 1: not shown
heavy 2: not shown
light: B2 light
notes: copies: 1 + 1 + 2

- He/Con 3a: 93 % of GpH7-A5/GpH7-B3/GpL16-k0
B25: GpH7-A5/GpH7-B3 variant S239_14T/GpL16-k0 (antibody, human IgG1, kappa)
heavy 1: not shown
heavy 2: not shown
light: B2 light
notes: copies: 1 + 1 + 2

- He/Con 3a: 51.4 % of GpH7-A5/GpH7-B3/GpL16-k0
B27: GpH7-A5/GpH7-B3 variant S298_18N/GpL16-k0 (antibody, human IgG1, kappa)
heavy 1: not shown
heavy 2: not shown
light: B2 light
notes: copies: 1 + 1 + 2

- He/Con 3a: 99.3 % of GpH7-A5/GpH7-B3/GpL16-k0
B29: GpH7-A5/GpH7-B3 variant S324_04F/GpL16-k0 (antibody, human IgG1, kappa)
heavy 1: not shown
heavy 2: not shown
light: B2 light
notes: copies: 1 + 1 + 2

Second part, the binder before the results:

B1: GpH7-A5/GpH7-B3 variant P331_14T/GpL16-k0 (antibody, human IgG1, kappa)
heavy 1: not shown
heavy 2: not shown
light: B2 light
notes: copies: 1 + 1 + 2
- He/Con 3a: 67.8 % of GpH7-A5/GpH7-B3/GpL16-k0

B4: GpH7-A5/GpH7-B3 variant Q295_03V/GpL16-k0 (antibody, human IgG1, kappa)
heavy 1: not shown
heavy 2: not shown
light: B2 light
notes: copies: 1 + 1 + 2
- He/Con 3a: 86.2 % of GpH7-A5/GpH7-B3/GpL16-k0

B7: GpH7-A5/GpH7-B3 variant Q295_01G/GpL16-k0 (antibody, human IgG1, kappa)
heavy 1: not shown
heavy 2: not shown
light: B2 light
notes: copies: 1 + 1 + 2
- He/Con 3a: 76.6 % of GpH7-A5/GpH7-B3/GpL16-k0

B8: GpH7-A5/GpH7-B3 variant P331_20W/GpL16-k0 (antibody, human IgG1, kappa)
heavy 1: not shown
heavy 2: not shown
light: B2 light
notes: copies: 1 + 1 + 2
- He/Con 3a: 71.9 % of GpH7-A5/GpH7-B3/GpL16-k0

B10: GpH7-A5/GpH7-B3 variant Q295_13S/GpL16-k0 (antibody, human IgG1, kappa)
heavy 1: not shown
heavy 2: not shown
light: B2 light
notes: copies: 1 + 1 + 2
- He/Con 3a: 90.4 % of GpH7-A5/GpH7-B3/GpL16-k0

B14: GpH7-A5/GpH7-B3 variant Q295_15Y/GpL16-k0 (antibody, human IgG1, kappa)
heavy 1: not shown
heavy 2: not shown
light: B2 light
notes: copies: 1 + 1 + 2
- He/Con 3a: 81.5 % of GpH7-A5/GpH7-B3/GpL16-k0

B16: GpH7-A5/GpH7-B3 variant Q295_09D/GpL16-k0 (antibody, human IgG1, kappa)
heavy 1: not shown
heavy 2: not shown
light: B2 light
notes: copies: 1 + 1 + 2
- He/Con 3a: 85.6 % of GpH7-A5/GpH7-B3/GpL16-k0

B17: GpH7-A5/GpH7-B3 variant Q295_02A/GpL16-k0 (antibody, human IgG1, kappa)
heavy 1: not shown
heavy 2: not shown
light: B2 light
notes: copies: 1 + 1 + 2
- He/Con 3a: 111 % of GpH7-A5/GpH7-B3/GpL16-k0

B18: GpH7-A5/GpH7-B3 variant P331_16H/GpL16-k0 (antibody, human IgG1, kappa)
heavy 1: not shown
heavy 2: not shown
light: B2 light
notes: copies: 1 + 1 + 2
- He/Con 3a: 73.4 % of GpH7-A5/GpH7-B3/GpL16-k0

B20: GpH7-A5/GpH7-B3 variant Q295_10E/GpL16-k0 (antibody, human IgG1, kappa)
heavy 1: not shown
heavy 2: not shown
light: B2 light
notes: copies: 1 + 1 + 2
- He/Con 3a: 105 % of GpH7-A5/GpH7-B3/GpL16-k0

B21: GpH7-A5/GpH7-B3 variant Q295_08L/GpL16-k0 (antibody, human IgG1, kappa)
heavy 1: not shown
heavy 2: not shown
light: B2 light
notes: copies: 1 + 1 + 2
- He/Con 3a: 120 % of GpH7-A5/GpH7-B3/GpL16-k0

B26: GpH7-A5/GpH7-B3 variant Q295_07I/GpL16-k0 (antibody, human IgG1, kappa)
heavy 1: not shown
heavy 2: not shown
light: B2 light
notes: copies: 1 + 1 + 2
- He/Con 3a: 101 % of GpH7-A5/GpH7-B3/GpL16-k0

B28: GpH7-A5/GpH7-B3 variant Q295_12R/GpL16-k0 (antibody, human IgG1, kappa)
heavy 1: not shown
heavy 2: not shown
light: B2 light
notes: copies: 1 + 1 + 2
- He/Con 3a: 73.2 % of GpH7-A5/GpH7-B3/GpL16-k0

B30: GpH7-A5/GpH7-B3 variant S239_01G/GpL16-k0 (antibody, human IgG1, kappa)
heavy 1: not shown
heavy 2: not shown
light: B2 light
notes: copies: 1 + 1 + 2
- He/Con 3a: 72 % of GpH7-A5/GpH7-B3/GpL16-k0
